The record followed here is paper PMC10881386.

Some results are limits rather than exact numbers.

Experiment [1] deals with FG domain comprising 52 GLFG 12mer repeat units. Briefly: FG phase partitioning (confocal microscopy); FG domain phase-separated by dilution from guanidinium hydrochloride, then fluorescent probe added; 50 mM Tris/HCl pH 7.5, 250 mM NaCl, 1 mM IP6; scanned after 1 h; partition coefficient = signal in the FG particle : outside.
In experiment [2] the target is disulfide-stabilized HIV-1 CA hexamer (CA-P1A, A14C, E45C, W184A, M185A) (HIV-1). Description: SEC; Superdex 200 increase, 20 mM Tris/HCl pH 8.0, 150 mM NaCl, 100 µM IP6; peak fraction seen by negative-stain EM; disulfide-stabilised hexamer. (In general: SEC sorts molecules by how far they enter the pores of the column.)

“40 nm capsid spheres (CA-P1A/N21C/A22C) labelled with CA–EGFP (complex)” had a partition coefficient (in:out) in experiment [1] greater than 300.

In turn, “capsid-like particles (CLPs) assembled from wild-type CA, with encapsulated mCherry (complex)” returned a partition coefficient (in:out) in experiment [1] greater than 750.

The term stoichiometry N denotes a count of units in the complex or per binding partner. Regarding “disulfide-stabilized HIV-1 CA hexamer (CA-P1A, A14C, E45C, W184A, M185A) (complex)”, in experiment [2], the stoichiometry N was 6. In turn, mCherry came in with a partition coefficient (in:out) in experiment [1] of less than 0.05.
